The values below come from paper PMC9501438 (International Journal of Molecular Sciences, 2022).

Assay [1] concerns the target T1, UBCH5B (UniProt P62837 1-147).
T1 construct: UBCH5B, E2 ubiquitin-conjugating enzyme, wild type; 15N-labelled in the NMR titrations; also called E2 enzyme UBCH5B; wt UBCH5B
The assay is described as follows: ITC; Microcal PEAQ ITC, 25 °C; 75-200 uM Arkadia polypeptide in the cell, 0.75-2 mM UBCH5B from the syringe in 2 uL injections; single site-binding model. The following applies: both partners purified.

Assay [2] concerns the target T1, UBCH5B. The description is as above. The following applies: both partners purified. This is another data set of the same source.

B1: Arkadia 119 aa polypeptide (domain or fragment)
chain: FRGNFEELIHLEERLGNVNRGASQGTIERCTYPHKYKKVTTDWFSQRKLHCKQDGEEGTEEDTEEKCTICLSILEEGEDVRRLPCMHLFHQVCVDQWLITNKKCPICRVDIEAQLPSES
notes: Cloned into pGEX-4T-1; source: E. coli, purified (GST-trap, thrombin cleavage, Superdex 75 SEC); not shown: GST, N-terminal, cleaved
Take B1: in the assay with UBCH5B [1], the Kd was found to be 2.7 µM.

B2: Arkadia RING 68 aa (domain or fragment)
chain: KQDGEEGTEEDTEEKCTICLSILEEGEDVRRLPCMHLFHQVCVDQWLITNKKCPICRVDIEAQLPSES
notes: Cloned into pGEX-4T-1; also called Ark RING 68aa; Ark 68 aa; source: E. coli, purified (GST-trap, thrombin cleavage, Superdex 75 SEC); not shown: GST, N-terminal, cleaved
With B2, the Kd in the assay with UBCH5B [1] was found to be 32 µM.

B3: Arkadia 90 aa polypeptide (domain or fragment)
chain: CTYPHKYKKVTTDWFSQRKLHCKQDGEEGTEEDTEEKCTICLSILEEGEDVRRLPCMHLFHQVCVDQWLITNKKCPICRVDIEAQLPSES
notes: Arkadia (RNF111), human, isoform 1, residues 905-994: NLS, the segment unique to isoform 1 and the RING-H2 domain; Cloned into pGEX-4T-1; also called Ark 90 aa; source: E. coli, purified (GST-trap, thrombin cleavage, Superdex 75 SEC); not shown: GST, N-terminal, cleaved
Take B3: binding with UBCH5B [2] was characterised by a dissociation constant (Kd) of 23 µM.
